{
  "source": "paper PMC6913129",
  "test_in_all_cases": "BLI",
  "key": {"[1]": {"biological_target": "T1, IFIT5 (UniProt Q13325 1-482)", "T1 sequence": "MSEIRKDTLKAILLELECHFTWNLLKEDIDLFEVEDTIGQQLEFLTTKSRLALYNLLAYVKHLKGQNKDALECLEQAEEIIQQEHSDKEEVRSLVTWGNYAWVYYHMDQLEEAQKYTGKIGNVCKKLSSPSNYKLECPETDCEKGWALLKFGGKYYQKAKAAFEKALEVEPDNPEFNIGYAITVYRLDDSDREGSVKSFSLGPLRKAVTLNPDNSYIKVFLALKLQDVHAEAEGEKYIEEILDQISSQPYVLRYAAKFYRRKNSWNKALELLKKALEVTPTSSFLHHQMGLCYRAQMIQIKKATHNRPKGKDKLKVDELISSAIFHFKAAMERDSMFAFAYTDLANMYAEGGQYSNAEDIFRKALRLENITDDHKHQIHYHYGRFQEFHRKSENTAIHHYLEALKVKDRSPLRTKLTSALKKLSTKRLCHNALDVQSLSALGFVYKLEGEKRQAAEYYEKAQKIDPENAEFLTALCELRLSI"}, "[2]": {"biological_target": "T2, IFIT1 (UniProt P09914 1-478)", "T2 sequence": "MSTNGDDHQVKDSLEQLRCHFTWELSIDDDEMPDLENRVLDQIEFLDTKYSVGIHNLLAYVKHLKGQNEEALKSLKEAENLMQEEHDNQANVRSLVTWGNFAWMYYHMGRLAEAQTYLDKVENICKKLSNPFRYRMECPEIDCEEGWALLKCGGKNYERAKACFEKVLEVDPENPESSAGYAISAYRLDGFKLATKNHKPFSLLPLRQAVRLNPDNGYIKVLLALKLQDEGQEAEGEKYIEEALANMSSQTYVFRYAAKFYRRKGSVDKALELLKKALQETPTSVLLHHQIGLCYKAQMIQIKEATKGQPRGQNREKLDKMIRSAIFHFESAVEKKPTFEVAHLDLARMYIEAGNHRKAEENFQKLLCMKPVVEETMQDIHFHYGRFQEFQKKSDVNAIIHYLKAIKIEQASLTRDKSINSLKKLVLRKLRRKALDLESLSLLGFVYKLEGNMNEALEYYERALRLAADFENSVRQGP"}, "[3]": {"biological_target": "T1, IFIT5", "remark": "listed apart in the source"}},
  "note": "Where two headings read alike, the source gives them in different places.",
  "data": [
    {"binder": "AGGAGACCGGCCUCGA (ssRNA, 5' NAD+ cap (first A is the NAD adenosine, inferred))", "note": "[NAD+-16ntRNA]", "values": [
      {"measurement": "binding result", "setting": "[1]", "result": "binds"}
    ]},
    {"binder": "AGGAGACCGGCCUCGA (ssRNA, 5' m7GpppAm cap 1 (2'-O-methyl A1))", "note": "[m7GpppAmG-16ntRNA]", "values": [
      {"measurement": "Kd", "setting": "[2]", "result": 44, "unit": "nM"}
    ]},
    {"binder": "AGGAGACCGGCCUCGA (ssRNA, 5' triphosphate)", "note": "[pppA-16ntRNA]", "values": [
      {"measurement": "Kd", "setting": "[2]", "result": 23.4, "unit": "nM"}
    ]},
    {"binder": "AGGAGACCGGCCUCGA (ssRNA, 5' NADH cap (first A is the NADH adenosine, inferred))", "note": "[NADH-16ntRNA]", "values": [
      {"measurement": "binding result", "setting": "[3]", "result": "binds"}
    ]},
    {"binder": "AGGAGACCGGCCUCGA (ssRNA, 5' GpppA cap (unmethylated; cap G not in strand))", "note": "[GpppA-16ntRNA]", "values": [
      {"measurement": "Kd", "setting": "[2]", "result": 2.65, "unit": "nM"}
    ]},
    {"binder": "AGGAGACCGGCCUCGA (ssRNA, 5' m7GpppA cap 0)", "note": "[m7GpppAG-16ntRNA (m7GpppA)]", "values": [
      {"measurement": "Kd", "setting": "[2]", "result": 6.12, "unit": "nM"}
    ]}
  ]
}
